Experimental data from the domain aggregation screens of Martell et al. (2025).

Assay: soluble fraction after stress (log2 fold change); higher = more stays soluble; pooled small domains, quantitative proteomics
Details: stress: 50 degC
Procedure, shortened: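 The stress applied to every library was 50°C. These custom libraries of small protein domains were pooled and measured at high throughput with quantitative proteomics as the read-out. Aggregation propensity is expressed as the base-two logarithm of the fold change in how much of each protein remains soluble. The higher the value, the more of that protein stays in solution.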

Sequence: HMTPGPFLVYITGAVERPNVLVTLDYGSRVIDALNAAGGSRIDANLDLVNLAQRLVDGDQIHVPTLR
- soluble fraction (log2): -1.28

Sequence: HMTPGPYETLKPAPLGSYIEPKIGFATAIEIARKEAVQLGIKTEAGGIWYGGDFPFYNVSFFDPDD
- soluble fraction (log2): -0.615

Sequence: HMTPKVTVPDVTGQTFSSAKQILESLGFTVKQQGSTDETDQVIDQNPTSGEADKGATITLTTKSS
- soluble fraction (log2): 0.297

Sequence: HMTPPAQQPHEGLPTDETATDAKTLVQKSRWWLEEEQRQREAGNTAYAERIRLALIQLLYRAERA
- soluble fraction (log2): 0.0784

Sequence: HMTPQNAAAVLRYLSSGAIKGVGPSTAQRIVEKFGAESLDIIQNKPEELATIRGISLSKALAVSEEYNKQY
- soluble fraction (log2): -0.202

Sequence: HMTPTFSNQDLIKAGLAGSPVAKRRRERLGELLGIGYGNAKQLLKRLDLFAIDRPTFERAVAQLDQEGK
- soluble fraction (log2): -0.161

Sequence: HMTPVSQIATKDIEEKIDSLSDEYKDPFILHFKGFKYKEIADQLDIPIGTVKSRIFIARKKLIDLLPDY
- soluble fraction (log2): -0.115

Sequence: HMTQEHDESVNLGKRLLDQALSRFGTSYRQLKKSEIKRILQSSGASTFKYILHQIGLGNRVPLAIANLIV
- soluble fraction (log2): -0.0734

Sequence: HMTQEMPAEVKKKADAFNNAMDEENYTEAKAILAELEQNTAPSYPLLLQMQTRYAFETASWE
- soluble fraction (log2): -0.00382

Sequence: HMTQFSASSERAGAGGAYRTTLRAMEQNGDLLQISILLPDAVTAKHAATVWPERAQAIYTAILSELLK
- soluble fraction (log2): -0.446

Sequence: HMTQGIDQISFSQFLDKVQSGEVTDVRISGSDITGTLKTGGKFETVAGNYEKIWDLLRENKVVFVVDSP
- soluble fraction (log2): 0.0436

Sequence: HMTQNSAITNRVLYMQRTLRQYGYAVPESGNFDRTTRAHAAEFLYNATGLPVRENQSVQEFYRAFQRVQG
- soluble fraction (log2): -0.981

Sequence: HMTQRRLQSELDSIPGVGAGTRTKLLRTLGSVDAVLRASEAELLAAGANRRQVASIQAHAAAVER
- soluble fraction (log2): -0.0642

Sequence: HMTQSQSLQSQFEQLEKAYQDNLHLLSPKQKLIIQEAGKIIQQLPQQAQIQAKVNLYQSLSAEISKESQQ
- soluble fraction (log2): 0.118

Sequence: HMTQTDINQIETLVHEGNKLAAVKLLMDTAHIGLKEAKDIIDNFFLGKQTDLQAAVAQVQTR
- soluble fraction (log2): 0.123

Sequence: HMTRHIQVNDSIASTPIEDVYFSTRTYNALLNNGISVIGDLSKYTHDDLYASFQGLGRAGVLEIEAYLRQD
- soluble fraction (log2): -1.53

Sequence: HMTRHSSVDFAGYILRNKENEPIFGFGKHKGKTVVEVLQREQGYFGWLMEADFPLYTKKVLTAIRLNTLNS
- soluble fraction (log2): -0.117

Sequence: HMTRLDLQNAFRVLPPEIQPAAVLFFLQERKQREIAKILGIGLPLVKYRIRKARELLAQFLRKEA
- soluble fraction (log2): -0.241

Sequence: HMTRNEFLTALRGRLSALPKEEQDAALKYYEEYFDEAESEEDAARQLGSPDSIAEKILADYA
- soluble fraction (log2): -0.17

Sequence: HMTRQNTAVQQSDMAHHKASELTEGMSIVHSHFGRGTIISIETADDPRVTVDFSSEGRKTMLLRFAKFAIE
- soluble fraction (log2): -0.118

Sequence: HMTRQRQLIYNIIQRADDHPTAEMIYARAKAEMPSIAFGTVYRNLKLMVDAGEILHIPVAGEPDRYDK
- soluble fraction (log2): -1.98

Sequence: HMTRVANIPYSEFLKLVETDKINDVSMVGKTISGHLDDGTKFSTYTPPNDPNLIDKLSKHNVIIKAGPE
- soluble fraction (log2): 0.0971

Sequence: HMTRVDKLQTWLSLPREQRDWDEGALMLLQLTGNKIMYRNLSVNPEGKANFIEGKLQQYLEFRLA
- soluble fraction (log2): -1.26

Sequence: HMTSAHEKAFDLFDGGKLSEKALLIAVGAERSGFELAGDLRLRTLTAFEDGRLSEDAMIKLL
- soluble fraction (log2): -0.385

Sequence: HMTSAIAEGTVIRLTQSTNIRESMSEDAPKVATAFSGEKVTVIMSYAEGWTKVTYGDKTGYIKTELL
- soluble fraction (log2): -0.184

Sequence: HMTSAPHHIAAVLRDAIYRGVLEEGGPLHQARIAQSLGVSPIPLREALRLLETEGLVEFRGYRGAFVT
- soluble fraction (log2): -0.492

Sequence: HMTSDADSLRDKTGYVAEQVTSKGGKVNLYDGGFDSLYSARSTGETISTGTEIRVVDPGGGNMLVVEPV
- soluble fraction (log2): 0.367

Sequence: HMTSDYEPSEKDEKAVIGIAFLRNTDVYDVDIDKAEAIKALKANNDIYQKFVKFFPFVKLPSLYDDFQ
- soluble fraction (log2): -0.00582

Sequence: HMTSGPAWPALSAQQRSVLAPLQRDWHTIDAARKAKWLEVAARFPSMPAEERQRVQERMAEWA
- soluble fraction (log2): -0.0518

Sequence: HMTSKIIIGDSYSKINKLLGEPENMKKRKFLDNEYLMVLYSINKKNYRLYFKDNILFELEDI
- soluble fraction (log2): -0.941

Sequence: HMTSLQDLLEELRVIRETLTGSQVLSDMQLFSQLRNLGDIKAALTRMQDNPAAARMVGEVDKLLETMFAS
- soluble fraction (log2): -0.955

Sequence: HMTSLSYINDLVTGATAQGLYRIVVPNQFMDDNMANVLRRTYGYQVQSRTSLMGTFDDYIISWAPPM
- soluble fraction (log2): -2.45

Sequence: HMTSMTHLGRHPDSEISLDDISVSRRHAEIERQGHEYVLRDSGSLNGTYVNQQRVDSVVLQQGDEIL
- soluble fraction (log2): 0.234

Sequence: HMTSPLQIHPNPATKHIELGLESPEVVLIKDINGKTVYQELVAPNQYIDIEHLKNGIYFIESKNKFGKLIK
- soluble fraction (log2): 0.169

Sequence: HMTSPNPLIRSTTPGLETNKKGGIIVDENEMSTRENVFAGGDAVTGAATVILAMGAGKKAAAAIDAKLQN
- soluble fraction (log2): 0.12

Sequence: HMTSPQGIERFLASGVIEGVGKAMAARIVAVFGGQTLEIIEKQPHRLREVRGIGVKTAEKIHASYQEKA
- soluble fraction (log2): -0.81

Sequence: HMTSPVEDLLDKAIQLYREENFEEAIAKWEEVLALDPSKLEAKFNIEIAQDRIKEKQIQEDLKSS
- soluble fraction (log2): 0.0629

Sequence: HMTSQVTVHVVGAVEKPGVVTLDAPSRVQDALEAAGGALPEAELSGVNLARELFDGEQIVVPAQGEDV
- soluble fraction (log2): -0.0113

Sequence: HMTSSVIIPKLIGKTEEEAKVALAGLNVQVLYETHGDQANGIVIKQSFEEGTKVIKGVSIVITVNKVS
- soluble fraction (log2): 0.0698

Sequence: HMTSTEQEILIEHMVDRLPALRKKYGISQTELGEKIGLSRQTISAIERKTTPLTWTTMLAILMFFT
- soluble fraction (log2): -1.7

Sequence: HMTSTSVKYVNSSSGLNVRKGPSTSYDKVTTLVNGTKVTVISTNNGWSKITSGSITGYVSSQYLSSSS
- soluble fraction (log2): -0.147

Sequence: HMTSVAYVIDRINKIQNVYSELEALGLKDEFEKILSNIEDLSKKDIREIKTLLKTKGVIKNLDDLNVKL
- soluble fraction (log2): -0.0059

Sequence: HMTSVQDLLRNGDRVGYQNGSTVKYWLEEMGFHKKDLLGYVTVEEYAEALQRGSGNGGVSAIVD
- soluble fraction (log2): -0.961

Sequence: HMTTARERVYKTLQQWIVNGTLLPEERLNDVELARYFSVSRTPVREALQMLAEQKLVKMVPSSGTFVA
- soluble fraction (log2): -0.769

Sequence: HMTTELDTTAITPIIQKVLKANPDVVAKYKAGQQQVIGFLMGQVMRELSTKPNPKELQSLIVAQLQQA
- soluble fraction (log2): 0.0755

Sequence: HMTTGEIIQRERTRLGLSQEKLAEQVGVSRQAVSKWELGDAVPDTDKLVPLARTLGISVDTLLD
- soluble fraction (log2): 0.0247

Sequence: HMTTGGAEELGRTERKIVEQVGRGLSNREIAQVLGLSEGTVRNYLSTILGKLGLRDRTQLAIWSVQTGFAA
- soluble fraction (log2): 0.197

Sequence: HMTTHERHEIIELLRQVGDPMRPKEISEALGKPSGAIRFLLSKLTEEGAIKKTGYGQYTYIP
- soluble fraction (log2): -0.359

Sequence: HMTTLTPIGKMKGEIDGDFEAFYLAVDKDGQVYLNRDPDYSENRYEKSRGWELVTREQLAVYEKELHFIP
- soluble fraction (log2): -0.406

Sequence: HMTTMYKSDVKGINYDVKAKSWFLRITFNGNQIPIGHFKTEEDAINVKQQLIPYIESKDYTSILAVKAKYS
- soluble fraction (log2): -0.4

Sequence: HMTTPDIIVPDVKGMTVAEAQKALEEKGFKVKLEEMTQEGAVPGDVIRIDPVAGTKRKEGAKITLLIARG
- soluble fraction (log2): 0.161

Sequence: HMTTQTGTVKWFNEGKGFGFIAPDDGGKDLFAHFKEIQGTGFKTLAENQRVEFEVTQGQKGPQASKI
- soluble fraction (log2): -0.0807

Sequence: HMTTQTTKYVNTTAGLNVRTGPSTSYAKIVTLSYGQSVNVLSTSNGWSKINYNGSTGYVSSQYLQSTKPS
- soluble fraction (log2): -0.619

Sequence: HMTTSNPMNVTSAEAAFDNGTDRLNAFISGRTTSEERSTYFPLFVRETKEDFLRAVGRFNEYIANHG
- soluble fraction (log2): 0.0364

Sequence: HMTTTAGTAVVQTGNSGKLNLREQAYSNAGILGRYSNGTIVTVLQKGSAWSYVEVQGQKGYMMSKFLRFT
- soluble fraction (log2): 0.293

Sequence: HMTTTFGWENLVGEKGIAATDLHPSGWVTVKDQRVFVVSEGTFIEEGKEVEIMNVDGNRIVVREFKN
- soluble fraction (log2): 0.0515

Sequence: HMTTTPTSQMVTELRSRGWTLRALAQRLGVGHASINRWANGVTPDRDLVAALRALVASGEVP
- soluble fraction (log2): -0.216

Sequence: HMTTTYEINDEMLKPLILEIFNKSKQRFGSTKIAPVLKREGYTASIAKVKTLMNELGIKPVNA
- soluble fraction (log2): -0.319

Sequence: HMTTTYTVPKVTGMTLEEAREDPDVVGRFTIVEGEKVTSDTVPVGQIVSQEPAAHRQVGEDGLTITVNIS
- soluble fraction (log2): 0.289

Sequence: HMTTVKDRVYEILKREIVLGKLKPGEPINIAVLSTKLNISSAPLREALNMLSRDGLVTLNPRKHAAVSE
- soluble fraction (log2): -0.499

Sequence: HMTTVRLNATVPPELALQRLDRVARELFPEYSRNRLQQWIRSGELLVNGSPSGVRDKVPLGAELAVAANLE
- soluble fraction (log2): -0.416

Sequence: HMTTVSINTTGIITASTIRASSALYPPLYTTVQRDAGTFSAGAIIFNSTTSKLEFYDGTTWQSLPG
- soluble fraction (log2): -0.106

Sequence: HMTTVTVGSKVRVKAGATFSDGAKPFAEVYNTVYDVQLLSHNGKEARIGIGDQWTGWIYISDLYLANQPAP
- soluble fraction (log2): -0.102

Sequence: HMTVEMYIGKTANVLETVTENNGRIAIFGEEWQAKSLNGETIEKGAQAKIVKNDSIIMYVVPI
- soluble fraction (log2): 0.0967

Sequence: HMTVGENTYELIKKDIIFGVLPPLKKLKLQELKKIYNASVSTLREILSRLTGDGFVFSEEQKGFYVSPV
- soluble fraction (log2): 0.00444

Sequence: HMTVKEVGYDTFLTMLDKKEIKQVQVEDNQIIFSDNADPVNYYKTGVFNDPDLVNRLQDAGVEFG
- soluble fraction (log2): 0.312

Sequence: HMTVKEYNRAVDEYSDAVWRFIRGNLRDEDRANDIVQDSFEKLWMHVTEIDYSVAKSWLFSTAYNNMIDI
- soluble fraction (log2): -0.277

Sequence: HMTVKKLTINEDNSGRRIDNYLLSIFNSLPRSKIYNIIRKGEVRVNSSRIKPNYRLEQGDLVRIPPNLEFT
- soluble fraction (log2): 0.0953

Sequence: HMTVKRNLVQEILRLKFRHPENFMPNRAFYQEVGINQMRWWDIFYGRKNINQEEYIALSKYF
- soluble fraction (log2): -0.237

Sequence: HMTVLPTEQDAKALVGLGEEEAAKIVEGNGWTYRIGSRDGEQFMLTEDFVTSRLTLGIEKAIVMTATI
- soluble fraction (log2): -0.915

Sequence: HMTVLSKEEFVAIEQRLLQLLGTAPVDNKILLQQLSGIKKEKAWKVLSFLQAENKIGMDATGRVYL
- soluble fraction (log2): -0.439

Sequence: HMTVPDVKGMGARDAVFLLETLGFKVRINGIGQVYEQSIDPGKSYSKGEFISLRL
- soluble fraction (log2): -0.51

Sequence: HMTVPNVVGQRILAAQDILKNLGLKVLVDTNLPNSQWGLRNVKSTNPGAGAVVRVGDTVTLIAR
- soluble fraction (log2): 0.0114

Sequence: HMTVPTEVALELMHATALEDNEQRILYIASFKEKHREHLHATIEVDGQEVTLARYADLVATGAYL
- soluble fraction (log2): -0.505

Sequence: HMTVSADIIQKIIKTSTTDENIITIDSISNSISKLALSKITAEDIIEILEASSLVLRNSNGSWTVL
- soluble fraction (log2): -0.617

Sequence: HMTVSKLKVINYTIRNGDSLWTISRKFNVTVDKVKEWNGLSDRTLLQPGQKLTLYVDPTIQISH
- soluble fraction (log2): -0.0925
